Tested on: C6orf203 mature form (Homo sapiens)
Test: EMSA
Conditions: 100 nM RNA, 0-2.56 uM protein; EMSA buffer, salt, pH and temperature not given (performed as previously described, ref 19); 100 nM fluorescein-labeled RNA; protein purified in 25 mM Tris-HCl …

Substance mt-tRNAPro has a Kd of 290 nM.

From paper PMC6755124
